Experimental data reported in US12344663B2, “Anti-C3 antibodies and antigen-binding fragments thereof and their uses for treating eye or ocular diseases” (CDR-Life AG, priority 2021, dated 2025).
Blank lines part the entries; values can stand above or below the molecule they belong to.

What was measured:
Classical Pathway (CP) = experiment: Hemolytic assay, antibody-sensitized sheep erythrocytes in human serum; type: cell-based; details: 1% human serum, read-out: IC50 (nM) Classical Pathway Hemolysis
Experimental: Anti-C3 antibody fragments are evaluated for their ability to inhibit hemolysis of antibody-sensitized sheep erythrocytes mediated by Classical Pathway (CP) or Alternative Pathway (AP) activation in human serum. For this, sheep erythrocytes are coated with hemolysin (rabbit anti-sheep antibodies) on the surface to activate the complement system in human serum resulting in C3 activation and subsequent formation of the Membrane Attack Complex (MAC). The MAC assembles on the membrane of sheep erythrocytes leading to cell lysis. The level of hemoglobin released from lysed erythrocytes is measured at OD 414 nm and is proportional to the complement activity present in the serum sample. For determining the ability of anti-C3 molecules to inhibit CP activity, human serum was diluted in GVB++ buffer (Complement technology) for optimal activation of the Classical Pathway (requires calcium and magnesium ions). Serial dilutions of anti-C3 test samples are prepared from this solution with a final concentration of 1% human serum for each datapoint (prior to addition to erythrocytes). The samples are incubated with antibody-sensitized sheep erythrocytes for 1 hour at 37° C. and released hemoglobin is measured in the supernatant after a centrifugation step.

Alternative Pathway (AP) = experiment: Hemolytic assay, rabbit erythrocytes in human serum; type: cell-based; details: MgEGTA, read-out: IC50 (nM) Alternative Pathway Hemolysis
Source text: The Alternative Pathway (AP) in human serum samples is spontaneously activated by rabbit erythrocytes. Since AP activation requires higher concentrations of serum, the Classical Pathway needs to be blocked with MgEGTA to chelate Ca2+ ions (AP only requires Mg2+ ions). AP activation results in C3 activation and subsequent formation of the Membrane Attack Complex (MAC). The MAC assembles on the membrane of rabbit erythrocytes leading to cell lysis. The level of hemoglobin released from lysed erythrocytes is measured at OD 414 nm and is proportional to the complement activity present in the serum sample.

cyno C3 = experiment: SPR (Biacore T100) binding to cyno C3; design: species or system cynomolgus (Macaca fascicularis); details: for Kd: Table 20, SPR; for kd cyno C3: off-rate; for ka cyno C3: on-rate
Experimental: (§1) The kinetic parameters of the candidates are determined using a surface plasmon resonance (SPR) and Biacore T100 device. C3 and different variants thereof (Table 19) are immobilized as a ligand on a HC30M SPR sensor chip (XanTec bionanalytics, Germany) using EDC/[…] linking chemistry. Five increasing concentrations of each molecule (analyte) are consecutively injected using the single cycle kinetics (SCK) mode to determine the kinetic parameters. Regeneration between the candidates is done with 10 mM glycine*HCl, 2 M NaCl, pH 3.5. The data is fitted to a 1:1 Langmuir binding model and the kinetic parameters of on-rate (ka), off-rate (kd), and affinity […] were determined.

human C3 R102G = target: T1, human C3 R102G (Homo sapiens, UniProt P01024, R102G); experiment: SPR (Biacore T100) binding to C3 SNP2 R102G; details: for Kd: Table 20, SPR; for kd C3 SNP2 R102G: off-rate; for ka C3 SNP2 R102G: on-rate
T1 construct: 6×His (N); made in house; host or cells: CHO (ExpiFectamine CHO Expression Kit)
T1 sequence (P01024 23-1663 R102G): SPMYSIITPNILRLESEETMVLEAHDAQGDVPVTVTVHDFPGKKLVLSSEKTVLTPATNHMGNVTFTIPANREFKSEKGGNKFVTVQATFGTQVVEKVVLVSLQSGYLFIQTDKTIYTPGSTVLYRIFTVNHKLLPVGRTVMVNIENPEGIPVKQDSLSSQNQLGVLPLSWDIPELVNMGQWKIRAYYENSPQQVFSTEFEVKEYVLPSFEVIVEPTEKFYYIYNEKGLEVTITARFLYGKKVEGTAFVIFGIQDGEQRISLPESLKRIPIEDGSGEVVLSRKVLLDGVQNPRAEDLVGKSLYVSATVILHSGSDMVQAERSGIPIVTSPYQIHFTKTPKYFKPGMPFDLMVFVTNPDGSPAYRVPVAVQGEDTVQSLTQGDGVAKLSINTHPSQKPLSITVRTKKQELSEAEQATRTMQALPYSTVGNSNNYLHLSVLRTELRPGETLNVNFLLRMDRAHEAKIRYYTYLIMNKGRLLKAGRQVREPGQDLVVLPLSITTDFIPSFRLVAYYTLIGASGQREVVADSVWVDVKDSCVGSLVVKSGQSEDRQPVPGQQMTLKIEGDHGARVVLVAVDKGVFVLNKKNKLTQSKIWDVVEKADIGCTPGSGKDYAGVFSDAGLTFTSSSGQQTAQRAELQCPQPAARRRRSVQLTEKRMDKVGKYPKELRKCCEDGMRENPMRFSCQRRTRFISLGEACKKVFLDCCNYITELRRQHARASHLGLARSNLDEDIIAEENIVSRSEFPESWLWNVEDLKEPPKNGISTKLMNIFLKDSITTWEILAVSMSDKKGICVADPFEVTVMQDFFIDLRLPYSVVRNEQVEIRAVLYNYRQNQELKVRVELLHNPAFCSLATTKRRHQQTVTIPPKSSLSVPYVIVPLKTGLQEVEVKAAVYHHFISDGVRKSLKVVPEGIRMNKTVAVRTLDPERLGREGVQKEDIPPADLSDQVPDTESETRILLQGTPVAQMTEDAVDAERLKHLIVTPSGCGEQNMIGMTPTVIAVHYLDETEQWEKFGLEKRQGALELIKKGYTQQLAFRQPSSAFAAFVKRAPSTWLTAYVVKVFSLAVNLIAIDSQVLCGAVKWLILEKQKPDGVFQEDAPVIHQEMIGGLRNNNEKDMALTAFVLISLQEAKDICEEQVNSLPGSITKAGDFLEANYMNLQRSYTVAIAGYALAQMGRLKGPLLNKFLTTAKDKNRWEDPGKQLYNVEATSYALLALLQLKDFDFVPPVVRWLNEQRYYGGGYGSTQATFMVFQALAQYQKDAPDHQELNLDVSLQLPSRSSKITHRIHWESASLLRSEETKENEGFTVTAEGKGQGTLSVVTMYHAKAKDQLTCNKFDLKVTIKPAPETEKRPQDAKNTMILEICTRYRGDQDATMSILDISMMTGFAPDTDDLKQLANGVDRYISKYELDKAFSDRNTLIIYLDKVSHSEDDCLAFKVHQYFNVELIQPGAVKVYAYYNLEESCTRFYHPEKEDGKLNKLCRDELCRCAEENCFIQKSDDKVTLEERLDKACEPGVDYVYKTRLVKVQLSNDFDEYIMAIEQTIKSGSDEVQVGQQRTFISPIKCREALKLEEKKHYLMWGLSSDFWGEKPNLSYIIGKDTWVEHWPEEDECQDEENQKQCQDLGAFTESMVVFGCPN
Experimental: as §1
Single nucleotide polymorphism (SNP) in C3 has been observed across the population and certain SNPs were identified in genome-wide association studies (GWAS) to correlate with an increased risk to develop AMD. Common SNP variants include P314L, which occurs in approximately 23.3% of population, and R102G, which has been reported to occur in approximately 26-29% of population. Very rare variants, which occur in less that 2.5% of the population include K155Q, R735W, S1619W, K65Q and R161W.
The inventors therefore measured the binding affinity of the scFv of the invention to the most commonly occurring C3 forms, i.e., R102G and P314L. Wild-type human C3, human C3 P314L and human C3 R102G are expressed in the CHO cell line using the ExpiFectamine CHO Expression Kit (Thermo Fisher Scientific). Proteins are expressed with N-terminal 6×His tag and purified using a HisTrap Excel HP column (GE Healthcare), followed by a size-exclusion chromatography step (SUPERDEX®20010/300GL; GE Healthcare).

[1] = Storage stability at 150 mg/ml, oligomerization by SE-HPLC; type: physicochemical; details: decrease in monomeric content versus start
Experimental: (§2) Clone I, clone II and clone III are tested for storage stability. Samples are concentrated to 150 mg/ml (Vivaspin20 centrifugal device, 5 kDa MWCO at 3800×g) and stored at 25° C. and 40° C. for up to 4 weeks. Samples are analyzed for oligomerization (SE-HPLC) and chemical degradation (IEX-HPLC). The starting monomeric purity as determined by SE-HPLC was 99.96% for each clone. The starting charge purity, as determined by IEX-HPLC was 98.07%, 97.16% and 96.76%, respectively for clone I, II and III.

[2] = Storage stability at 150 mg/ml, chemical degradation by IEX-HPLC; type: physicochemical; details: for Starting charge purity (IEX-HPLC): before storage; for Storage stability, IEX 4 weeks at 25° C. [D %] / Storage stability, IEX 4 weeks at 40° C. [D %]: decrease versus start
Experimental: as §2

[3] = Viscosity at high concentrations, cone-plate-rheometer; type: physicochemical; details: 20° C., shear-rate 1000 s^−1; for Viscosity [mPa * s] Fully formulated at 150 g/L: 10 mM His pH 5.5, 275 mM sucrose, 0.02% w/v Polysorbate20; for Viscosity [mPa * s] Minimal buffer at 185 g/L: 10 mM His pH 5.5
Experimental: Viscosity measurements are performed with the samples prepared for the storage stability study. In addition to the fully formulated samples (10 mM His pH 5.5, 275 mM sucrose, 0.02% w/v Polysorbate20), viscosity of each candidate is also measured in a minimal formulation (10 mM histidine pH 5.5). This is performed to evaluate the drug substance processability (e.g., filtration, pumping, diafiltration, etc.) of the candidates up to 125% of the final drug product concentration of 150 mg/ml.
Viscosity is measured at 20° C. at a shear-rate of 1000 s^−1 using a cone-plate-rheometer. Briefly, a stepwise increase of the shear rate up to 1,000 s^−1 is done collecting 100 data points, followed by a further increase of the shear rate up to 2000 s^−1, collecting another 10 data points. Finally, a stepwise decrease of the shear rate down to starting rate is done. Good drug product handling properties for filling and syringeability have been observed for all candidates

- Kd (cyno C3): 0.267 nM
- kd cyno C3 (cyno C3): 6.3e-05 s⁻¹
- ka cyno C3 (cyno C3): 240000 M⁻¹ s⁻¹
- Kd (human C3 R102G): 0.135 nM
- kd C3 SNP2 R102G (human C3 R102G): 4.5e-05 s⁻¹
- ka C3 SNP2 R102G (human C3 R102G): 330000 M⁻¹ s⁻¹
B1: Clone I: humanized anti-C3 scFv, VH SEQ ID NO: 20, VL SEQ ID NO: 21; scFv SEQ ID NO: 26 or 27 (antibody, V domains shown)
VH: QVQLVESGGGSVQPGRSLRLSCAASGFTFSNYAMNWVRQAPGKGLEWVAVISYDGSNKYYADSVKGRFTISRDNSKNTLYLQMNSLRAEDTASYYCARAVGYHHARLDPWGCGTSVTVSS
VL: QLVLTQSPSASASLGASVKLTCTLSSAHKTYTIDWYQQQPEKCPRYLMQLKSDGSYTKGSGIPDRFSGSSSGAERYLTISSLQSEDEADYYCGTEGVGGYVFGGGTKLTVLG
modifications: VH; VL
- IC50 (Classical Pathway (CP)): 74 nM
- IC50 (Alternative Pathway (AP)): 705 nM
- Storage stability, SEC 4 weeks at 25° C. [D %] [1]: 0.06 D %
- Storage stability, SEC 4 weeks at 40° C. [D %] [1]: 0.37 D %
- Starting charge purity (IEX-HPLC) [2]: 98.07%
- Storage stability, IEX 4 weeks at 25° C. [D %] [2]: 1.1 D %
- Storage stability, IEX 4 weeks at 40° C. [D %] [2]: 2.4 D %
- Viscosity [mPa * s] Fully formulated at 150 g/L [3]: 3.9 mPa * s
- Viscosity [mPa * s] Minimal buffer at 185 g/L [3]: 5.4 mPa * s

- Kd (cyno C3): 0.07 nM
- kd cyno C3 (cyno C3): 1.5e-05 s⁻¹
- ka cyno C3 (cyno C3): 210000 M⁻¹ s⁻¹
- Kd (human C3 R102G): 0.021 nM
- kd C3 SNP2 R102G (human C3 R102G): 7e-06 s⁻¹
- ka C3 SNP2 R102G (human C3 R102G): 330000 M⁻¹ s⁻¹
B2: Clone II: humanized anti-C3 scFv, VH SEQ ID NO: 22, VL SEQ ID NO: 23; scFv SEQ ID NO: 28 or 29 (antibody, V domains shown)
VH: QVQLVESGGGSVQPGRSLRLSCAASGFTFSNYAMNWVRQAPGKGLEWVAIINVGGGTNYADSVKGRFTISRDNSKNTLYLQMNSLRAEDTASYYCARAVGYHHARLDPWGCGTSVTVSS
VL: B1 VL
modifications: VH; VL
- IC50 (Classical Pathway (CP)): 69 nM
- IC50 (Alternative Pathway (AP)): 668 nM
- Storage stability, SEC 4 weeks at 25° C. [D %] [1]: 0.11 D %
- Storage stability, SEC 4 weeks at 40° C. [D %] [1]: 1.59 D %
- Starting charge purity (IEX-HPLC) [2]: 97.16%
- Storage stability, IEX 4 weeks at 25° C. [D %] [2]: 0.5 D %
- Storage stability, IEX 4 weeks at 40° C. [D %] [2]: 3.3 D %
- Viscosity [mPa * s] Fully formulated at 150 g/L [3]: 3.9 mPa * s
- Viscosity [mPa * s] Minimal buffer at 185 g/L [3]: 4.5 mPa * s
